We go through 1 molecule from patent US10864251B2, “Peptides of syndecan-1 for inhibiting angiogenesis” (Wisconsin Alumni Research Foundation, priority 2006, dated 2020).

In experiment [1] the test system is human aortic endothelial cells (HAEC). Kind of experiment: Cell attachment and spreading on VN, HAECs. It counts as cell-based. The method, then: FIG. 2—Human aortic endothelial cells rely on αvβ3 and αvβ5 integrins for spreading on VN. Human aortic endothelial cells (HAECs) were suspended and replated on 10 μg/ml VN in the presence of integrin inhibitory antibodies mAb 13 (specific for β1-containing integrins; this will inhibit the αvβ1 integrin), LM609 (specific for the αvβ3 integrin) and P1F6 (specific for the αvβ5 integrin), or combinations of these mAbs. After 2 hr, the cells were fixed, stained with Alexa488-conjugated phalloidin to aid in visualization, and observed by fluorescence microscopy to document integrin-dependent spreading. Inhibition of spreading requires simultaneous inhibition of both αvβ3 and αvβ5 integrins.
FIG. 3—αvβ3 and αvβ5 integrin-mediated spreading of human aortic endothelial cells on VN is disrupted by recombinant Sdc1 ectodomain fusion protein. HAECs were plated on VN in the presence of no competitor, 1-10 μM GST-mS1ED (recombinant mouse Sdc1 ectodomain expressed as a fusion protein with GST) or GST alone.
FIG. 4—Inhibition of HAEC spreading on VN by silencing of Sdc-1. […]
FIGS. 10A-10D—Dependence of HMEC cell attachment and spreading on integrin activation by Sdc1 and its inhibition by SSTN. […] Sdc1 expression was quantified by flow cytometry using human Sdc1-specific mAb B-B4 or a control mouse IgG. […]

Experiment [2] concerns mouse aortic endothelial cells. The experiment can be described thus: Cell spreading on VN, mouse aortic endothelial cells. The format is cell-based. The following applies: 1 μM competitor. The method, then:
FIGS. 10A-10D—Dependence of HMEC cell attachment and spreading on integrin activation by Sdc1 and its inhibition by SSTN. (FIG. 10A) HMECs were plated for 2 hr either on Sdc1-specific antibody B-B4 to engage Sdc1 or on VN (10 μg/ml coating concentration) to engage the αvβ3 and αvβ5 integrins. Blocking antibodies LM609 (10 μg/ml, specific for αvβ3) and P1F6 (10 μg/ml, specific for αvβ5), SSTN (0.5 μM) or recombinant mouse Sdc1 ectodomain (mS1ED, 5 μM) were added. The ligand mimetic antibody WOW1 was used to detect activated αvβ3 integrin on cells plated on B-B4. (FIG. 10B) HMECs were treated with siRNA oligo specific for human Sdc1 for 48 hr prior to plating on VN. Sdc1 expression was quantified by flow cytometry using human Sdc1-specific mAb B-B4 or a control mouse IgG. (FIG. 10C-10D) The percentage of cell attaching or attaching and spreading was quantified for HMECs, HAEC and MAECs plated on VN for 24 hr in the presence of mS1ED or SSTN, or after siRNA silencing of Sdc1 expression in the presence of mAb LM609 to block αvβ3 integrin, P1F6 to block αvβ5 integrin, or both antibodies.
The next test was whether agents that target Sdc1, especially competition with recombinant S1ED, will block the activity of these two integrins and thus block their interaction with VN. […]

B1: S1ED: recombinant mouse Sdc1 ectodomain (amino acids 18-251), expressed in bacteria as GST fusion or 6×His-tagged protein (protein)
chain: QPALPQIVAVNVPPEDQDGSGDDSDNFSGSGTGALPDTLSRQTPSTWKDVWLLTATPTAPEPTSSNTETAFTSVLPAGEKPEEGEPVLHVEAEPGFTARDKEKEVTTRPRETVQLPITQRASTVRVTTAQAAVTSHPHGGMQPGLHETSAPTAPGQPDHQPPRVEGGGTSVIKEVVEDGTANQLPAGEGSGEQDFTFETSGENTAVAAVEPGLRNQPPVDEGATGASQSLLDRK
modifications: left off: a dimerising Fc or GST
notes: recombinant mouse Sdc1 ectodomain (amino acids 18-251), expressed in bacteria as GST fusion or 6×His-tagged protein
By IC50 is commonly meant the concentration that inhibits the measured activity by half. As for B1, in experiment [1] (read-out: IC50, cell spreading on vitronectin), the IC50 is approximately 1000 nM. Further, in experiment [1] (soluble competitor 1-10 μM (FIG. 3)), the “cell spreading on VN” value is recorded as “blocked”. Besides, in experiment [2], the “spreading on VN” value is “blocked”.
